We go through one molecule from patent US10138466B2, “Compositions and methods for differentiating stem cells into cell populations comprising beta-like cells” (REGENERATIVE MEDICAL SOLUTIONS, INC., priority 2014, dated 2018).

This test has as its system hESCs. As to the kind of experiment: Activin A alone in serum-free medium, pancreatic cell differentiation. It is filed as cell-based, human. Conditions: Activin A at 5 ng/ml, 50 ng/ml, or 100 ng/ml in serum-free medium. The source says:
Activin is a member of the TGF-β superfamily and has various effects on diverse biological systems (Abe Y, et al. Growth Factors 2004 June; 22(2):105-10; herein incorporated by reference in its entirety). Activin A has been reported to have a role in the induction of definitive endoderm from hESCs (D'Amour, K. A., et al. (2005); herein incorporated by reference in its entirety).

B1: Activin A: member of the TGF-β superfamily (protein, UniProt P08476 311-426, looked up)
Inhibin beta A chain: GLECDGKVNICCKKQFFVSFKDIGWNDWIIAPSGYHANYCEGECPSHIAGTSGSSLSFHSTVINHYRMRGHSPFANLKSCCVPTKLRPMSMLYYDDGQNIIKKDIQNMIVEECGCS
modifications: Inhibin beta A chain
notes: member of the TGF-β superfamily
As to B1, the “induction of pancreatic cell differentiation” value was “cannot induce pancreatic cell differentiation”.
